Assay results reported in patent US20240400718A1.
Substitutions are numbered along the chain they refer to.

B1: 2D12-B12 (antibody, V domains shown)
VH: EVKLVESGGGLVQPGRSLKLSCAASGFNFNDYWMGWVRQAPGKGLEWIGEIKKDSSIINYIPSLKDKFTISRDNAQNTLYLQMSKLGSEDTAIYYCARGVEYYGYHYWGQGTLVTVSS
VL: DIVMTQSPSSLAVSAGETVTINCKSSQSLLYSGNQKNYLAWYQQKPGQSPKLLIYWASTRHSGVPARFIGSGSGSDFTLTISSVQAEDLAIYCCQQYYDIPYTFGAGTKLELK
B2: 3E7-C1 (antibody, V domains shown)
VH: QVQMKESGPGLVQPSETLSLTCTVSGFSLTSYGVSWVRQPSGKGPEWMGRLWNDGDTAYNSALKSRLSISRDTSKNQVFLKMNSLQTDDTGTYYCTTMNGYKDYWGQGVMVTVSS
VL: TSYELIQPPSASVTLGNTVSLTCVGDELPKRYAYWYQQKPDQSIVRVIYEDSKRPSGISDRFSGSSSGTTATLTIRDAQAEDEADYYCHSTYSDDKLRIFGGGTKLTVLG
B3: 4B9-B11 (antibody, V domains shown)
VH: QMQLKESGPGLVQPSETLSLTCTVSGFSLTSYSVSWVRQPSGKGPEWMGRMYYDGDTAYNSALKSRLSISRDTSKNQVFLKMNSLQTDDTGTYYCTRSIGAEDYWGQGVMVTVSS
VL: B2 VL with A80N
B4: 3A4-A10-7 (antibody, V domains shown)
VH: QVQLQQSGAALVKPGASVKMSCKASGYTFTDCWVSWVKQSHGKSLEWIGEIHPNSGTTNFNEKFKGKATLTVDKSTSTAYMELSRLTSEDSAIYYCTRAYGGYPFDYWGQGVMVTVSS
VL: ADLVLTQPKSVSTSLESTVKLSCKLNSGNIGRYYMHWYQQHEGRSPTNMIYRDDKRPDGVPDRFSGSIDSSSNSAFLTINNVQTEDEAIYFCHSYDSSINIFGGGTKLTVLG

Legend:
[1] = target: S#067: CAR with VL-L1-VH scFv, Human 2nd-generation (4-1BB)_hIL7_hCCL19_HSVtk; experiment: flow cytometry on CAR-T cells; PE-labeled secondary antibody; PE-positive cells / total cells
S#076: VH-L2-VL CAR-T = experiment: as above
S#076: VH-L2-VL CAR-T, sequence (main, as listed by the source): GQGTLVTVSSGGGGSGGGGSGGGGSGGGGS
S#085: VL-L1-VH CAR-T = experiment: as above
S#084: VL-L2-VH CAR-T = experiment: as above
S#084: VL-L2-VH CAR-T, sequence (main, as listed by the source): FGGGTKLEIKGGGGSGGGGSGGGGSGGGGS
S#027: VH-L1-VL CAR-T = experiment: as above
#628: VH-L2-VL CAR-T = experiment: as above
S#066: VL-L2-VH CAR-T = experiment: as above
#651: VH-L2-VL CAR-T = experiment: as above
S#050: VH-L1-VL CAR-T = experiment: as above
S#097: VL-L2-VH CAR-T = experiment: as above
S#097: VL-L2-VH CAR-T, sequence (main, as listed by the source): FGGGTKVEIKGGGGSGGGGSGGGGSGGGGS

[2] = target: S#017: CAR with VH-L2-VL scFv, Human 3rd-generation_hIL7_hCCL19_HSVtk; experiment: as above
S#074: VL-L2-VH CAR-T = experiment: as above
#264: VH-L1-VL CAR-T = experiment: as above
[3] = target: #231: CAR with VL-L1-VH scFv, Human 3rd-generation; experiment: as above
#231: CAR with VL-L1-VH scFv, Human 3rd-generation, sequence (main, as listed by the source): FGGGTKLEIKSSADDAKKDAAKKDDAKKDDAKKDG

[4] = target: S#031: CAR with VH-L1-VL scFv, Human 3rd-generation_hIL7_hCCL19_HSVtk; experiment: as above
#371: VL-L2-VH CAR-T = experiment: as above
[5] = target: S#075: CAR with VL-L1-VH scFv, Human 2nd-generation (4-1BB)_hIL7_hCCL19_HSVtk; experiment: as above
S#104: VL-L1-VH CAR-T = experiment: as above
[6] = target: #231: CAR with VL-L1-VH scFv, Human 3rd-generation; experiment: subclone supernatant on HEK293T cells transiently expressing the scFv; % positive cells

Binder	Reactivity (%) [1] [%]	Reactivity (%) (S#076: VH-L2-VL CAR-T)	Reactivity (%) (S#085: VL-L1-VH CAR-T)	Reactivity (%) (S#084: VL-L2-VH CAR-T)	Reactivity (%) (S#027: VH-L1-VL CAR-T)	Reactivity (%) (#628: VH-L2-VL CAR-T)	Reactivity (%) (S#066: VL-L2-VH CAR-T)	Reactivity (%) (#651: VH-L2-VL CAR-T)	Reactivity (%) (S#050: VH-L1-VL CAR-T)	Reactivity (%) (S#097: VL-L2-VH CAR-T)	Reactivity (%) [2] [%]	Reactivity (%) (S#074: VL-L2-VH CAR-T)	Reactivity (%) (#264: VH-L1-VL CAR-T)	Reactivity (%) [3] [%]	Reactivity (%) [4] [%]	Reactivity (%) (#371: VL-L2-VH CAR-T)	Reactivity (%) [5] [%]	Reactivity (%) (S#104: VL-L1-VH CAR-T)	Positive (%) [6] [%]
B1	34.9	0.2	0.8	0.3	28.4	0.2	0.9	0.4	14.5	0.3	0	0.8	11.1	67.4	64.6	0.2	15	13.4	–
B2	41	0.1	41.4	0	0	0	0.1	0.1	0.1	0	0	0.1	0	69.6	2.2	0	25.9	21.5	24.5
B3	41.5	0.2	49.6	0.1	1	0.2	0.1	0.2	1.1	0.1	0	1.4	0	74.6	9.7	0.1	35.7	29.1	60
B4	22.3	0.2	2.2	0.1	45.7	0.1	0.2	0.2	18.5	0.1	0	0.2	36.7	23.9	45.3	0.2	12.3	5.2	–
